Assay results: US20060147922A1 (published 2006)
Blank lines part the entries; values can stand above or below the binder they belong to.

Experiments:
[1] = target: T1, EDD protein, full length (aa 1-2799) (human, UniProt O95071 1-2799, EDD is phosphorylated in cells; the residue involved has not yet been identified); assay: GST pull-down from MCF-7 nuclear extracts, EDD western blot
T1 construct: also called in vitro translated 35S-labelled EDD; endogenous EDD
Protocol: For GST fusion protein pull-down of endogenous or recombinant EDD from cell lysates, 0.5 to 1 mg total protein was incubated with 5 μg GST or GST fusion protein bound to glutathione beads for 1-2 h at 4° C. Beads were washed extensively in 1% Triton X-100 lysis buffer and bound proteins resolved by SDS-PAGE and detected by immunoblotting with EDD antisera (Callaghan et al, Oncogene 17, 3479-3491, 1998). For immunoprecipitation, 10 μl importin α5 antisera (Peter Palese, Mount Sinai School of Medicine) was incubated with 0.5 to 1 mg cell lysate (4° C. for 1 h). Antibody conjugates were captured on protein A sepharose beads (4° C. for 1 h) and washed extensively in lysis buffer. Bound proteins were resolved by SDS-PAGE followed by immunoblotting with EDD antisera.
(§1) To determine the requirement for the chk2 FHA domain in this interaction, the binding between EDD and GSTchk2-N and two mutants was assessed. The R117A mutant contains a substitution within the FHA domain and involves a residue directly required for phosphothreonine binding.

[2] = target: T2, EDDF5, central plus C-terminal domains of EDD (aa 889-2799) (human, UniProt O95071 889-2799, binding suggested to be mediated by a phosphorylated threonine residue; residue not identified); assay: GST pull-down of IVT 35S-EDDF5
T2 construct: In vitro translated, 35S-labelled; also called carboxyl two-thirds of EDD
Protocol: as §1

[3] = target: T3, EDDM, full length EDD with Cys2768 to Ala mutation (human, UniProt O95071 1-2799); assay: anti-FLAG M2 immunoprecipitation from HEK 293 cells overexpressing mutant EDD, EDD western blot
T3 construct: Stably overexpressed in HEK 293 cells (FLAG-CIB co-immunoprecipitation) or transfected for reporter assays; also called mutant EDD; ligase-defective EDD mutant
Protocol: Left, HEK 293 cells overexpressing mutant EDD were transfected with a plasmid encoding Flag-tagged CIB or empty vector (vec). Extracts from these cells were subjected to immunoprecipitation using anti-FLAG Ab M2. Right, nuclear extracts prepared from MCF-7 cells following treatment with DNA damage agents phleomycin (Phleo) or hydroxyurea (HU) were incubated with either GST or GST-CIB fusion protein bound to glutathione-Sepharose beads. Bound proteins from both procedures were analysed by SDS-PAGE and western blotted for EDD and amounts bound are indicated as percentages relative to input.
Stable HEK 293 cells overexpressing EDDM were transfected with pCMVTag2C-CIB or empty vector using Fugene 6 reagent (Roche) for 24 h. Following 6 h incubation in the presence of MG132, cells were harvested and lysates prepared and one mg total protein incubated with anti-FLAG antibody M2 coupled to Sepharose (Sigma Chemical Co., St Louis, USA) for 2 h at 4° C. Beads were recovered by centrifugation and washed extensively in lysis buffer. Western blotting for EDD has been described (Callaghan et al, Oncogene 17, 3479-3491, 1998).

[4] = target: T4, GAL4 DBD-EDDM fusion (full length EDD C2768A mutant bait) (yeast; human, UniProt O95071 1-2799); assay: yeast two-hybrid screen
T4 construct: Bait for the yeast two-hybrid screen of a human placenta cDNA library; also called full length EDDM (C2768A mutant) bait
Description: The cDNAs for full length EDD mutant and carboxy domain mutants (EDDM and EDD5M) were screened against a human placenta cDNA library in the pACT2 vector by the yeast two-hybrid method (Matchmaker 2, Clontech, Palo Alto, Calif., USA). Stable transformants of Saccharomyces cerevisiae strain Y190 expressing EDD fusion protein were transformed with the library using the lithium acetate method and 2-3×10⁶ primary transformants selected on his-leu-trp-plates. Following a second round of selection on the same medium, colonies were assayed for β.galactosidase activity using a filter-based assay. Interacting plasmids that were positive for β.galactosidase only in the presence of the EDD bait plasmids were transformed into E. coli DH5α cells for further analysis. […] Sequences were analysed by Blast searches of the Genbank and EMBL databases and predicted proteins analysed for motifs using the ISREC Profile Scan Server (www.isrec.isb-sib.ch).
Further yeast two-hybrid screening was aimed at identifying other proteins involved in the ubiquitinylation or coactivation functions of EDD. […] The interaction between CIB and full length EDD initially detected in the yeast two-hybrid system (FIG. 10A) was confirmed by pull-down of in vitro translated EDD proteins with GST-CIB (FIG. 10B). […]

[5] = target: T5, EDDF2, central domain of EDD (aa 889-1877) (human, UniProt O95071 889-1877); assay: GST-importin α5 pull-down of IVT 35S-EDD fragments
T5 construct: In vitro translated, 35S-labelled; also called central third; central region of EDD
T5 sequence: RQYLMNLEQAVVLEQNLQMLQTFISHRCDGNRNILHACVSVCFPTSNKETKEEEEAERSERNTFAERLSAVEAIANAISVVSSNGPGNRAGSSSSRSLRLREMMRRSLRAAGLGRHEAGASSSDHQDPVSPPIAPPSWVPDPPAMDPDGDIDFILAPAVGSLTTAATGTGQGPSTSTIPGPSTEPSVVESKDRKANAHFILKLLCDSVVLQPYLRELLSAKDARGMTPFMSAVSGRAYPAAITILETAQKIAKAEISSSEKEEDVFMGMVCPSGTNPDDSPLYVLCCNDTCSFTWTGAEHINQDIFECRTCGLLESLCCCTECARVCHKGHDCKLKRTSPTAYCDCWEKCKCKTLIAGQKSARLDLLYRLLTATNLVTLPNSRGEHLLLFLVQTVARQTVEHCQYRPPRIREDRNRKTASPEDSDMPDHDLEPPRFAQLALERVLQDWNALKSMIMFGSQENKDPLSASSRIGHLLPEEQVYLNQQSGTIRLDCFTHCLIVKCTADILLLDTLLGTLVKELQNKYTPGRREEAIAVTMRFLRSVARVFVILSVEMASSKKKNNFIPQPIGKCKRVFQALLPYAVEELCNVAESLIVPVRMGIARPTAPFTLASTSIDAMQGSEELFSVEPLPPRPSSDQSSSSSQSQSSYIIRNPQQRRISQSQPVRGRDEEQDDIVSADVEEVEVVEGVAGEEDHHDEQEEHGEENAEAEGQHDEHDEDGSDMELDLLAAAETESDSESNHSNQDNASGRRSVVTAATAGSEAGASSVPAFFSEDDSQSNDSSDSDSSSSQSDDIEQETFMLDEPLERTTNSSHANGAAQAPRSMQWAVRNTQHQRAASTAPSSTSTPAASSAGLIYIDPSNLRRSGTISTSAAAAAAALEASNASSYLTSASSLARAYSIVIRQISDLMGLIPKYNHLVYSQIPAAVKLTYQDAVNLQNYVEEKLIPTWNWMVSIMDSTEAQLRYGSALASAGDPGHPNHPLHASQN

[6] = target: T6, EDDF3, carboxy domain of EDD (aa 1877-2799) (human, UniProt O95071 1877-2799); assay: GST-importin α5 pull-down of IVT 35S-EDD fragments
T6 construct: In vitro translated, 35S-labelled; also called carboxy third; carboxy terminal region of EDD
T6 sequence: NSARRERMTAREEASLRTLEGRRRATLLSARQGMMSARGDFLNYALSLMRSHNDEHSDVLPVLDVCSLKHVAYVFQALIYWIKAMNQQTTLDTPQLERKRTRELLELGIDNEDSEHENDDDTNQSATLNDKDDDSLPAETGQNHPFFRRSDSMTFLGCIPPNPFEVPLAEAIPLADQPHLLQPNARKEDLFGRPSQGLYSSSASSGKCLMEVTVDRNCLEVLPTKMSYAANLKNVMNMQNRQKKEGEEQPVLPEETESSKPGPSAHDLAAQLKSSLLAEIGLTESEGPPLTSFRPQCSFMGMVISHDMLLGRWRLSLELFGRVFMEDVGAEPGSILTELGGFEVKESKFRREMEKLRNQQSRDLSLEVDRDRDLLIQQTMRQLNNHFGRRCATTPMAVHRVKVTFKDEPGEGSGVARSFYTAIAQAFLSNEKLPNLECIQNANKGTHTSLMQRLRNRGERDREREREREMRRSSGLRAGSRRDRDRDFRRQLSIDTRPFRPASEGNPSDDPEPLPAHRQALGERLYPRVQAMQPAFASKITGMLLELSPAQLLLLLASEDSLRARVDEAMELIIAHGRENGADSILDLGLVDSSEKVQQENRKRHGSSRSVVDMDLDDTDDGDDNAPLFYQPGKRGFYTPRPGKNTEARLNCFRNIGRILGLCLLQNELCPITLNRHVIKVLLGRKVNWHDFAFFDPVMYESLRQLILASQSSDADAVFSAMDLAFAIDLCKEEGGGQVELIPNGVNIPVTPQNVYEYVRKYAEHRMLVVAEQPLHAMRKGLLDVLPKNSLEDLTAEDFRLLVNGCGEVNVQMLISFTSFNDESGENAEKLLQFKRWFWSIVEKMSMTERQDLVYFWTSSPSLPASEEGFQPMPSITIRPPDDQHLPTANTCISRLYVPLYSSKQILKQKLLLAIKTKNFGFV

[7] = target: T7, EDDF1c (EDD aa 1-419) (human, UniProt O95071 1-419); assay: GST-importin α5 pull-down of IVT N-terminal EDD derivatives
T7 construct: In vitro translated, 35S-labelled; Contains neither N-terminal NLS
T7 sequence: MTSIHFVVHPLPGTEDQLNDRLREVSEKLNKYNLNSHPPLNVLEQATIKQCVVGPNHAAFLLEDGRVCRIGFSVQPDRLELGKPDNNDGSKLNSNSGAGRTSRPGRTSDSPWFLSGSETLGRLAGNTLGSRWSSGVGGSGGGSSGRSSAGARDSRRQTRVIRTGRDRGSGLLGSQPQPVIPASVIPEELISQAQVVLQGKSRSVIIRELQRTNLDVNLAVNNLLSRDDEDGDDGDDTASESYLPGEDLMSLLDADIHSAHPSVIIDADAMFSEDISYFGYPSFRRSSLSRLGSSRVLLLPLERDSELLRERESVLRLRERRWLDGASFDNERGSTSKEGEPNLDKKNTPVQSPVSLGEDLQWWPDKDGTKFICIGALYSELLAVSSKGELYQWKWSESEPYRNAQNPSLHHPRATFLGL

[8] = target: T4, GAL4 DBD-EDDM fusion (full length EDD …); assay: yeast two-hybrid screen; truncated clone
Description: The cDNAs for full length EDD mutant and carboxy domain mutants (EDDM and EDD5M) were screened against a human placenta cDNA library in the pACT2 vector by the yeast two-hybrid method (Matchmaker 2, Clontech, Palo Alto, Calif., USA). Stable transformants of Saccharomyces cerevisiae strain Y190 expressing EDD fusion protein were transformed with the library using the lithium acetate method and 2-3×10⁶ primary transformants selected on his-leu-trp-plates. Following a second round of selection on the same medium, colonies were assayed for β.galactosidase activity using a filter-based assay. Interacting plasmids that were positive for β.galactosidase only in the presence of the EDD bait plasmids were transformed into E. coli DH5α cells for further analysis. Manual sequencing was carried out using ³³P end-labelled primer in conjunction with the fmol Cycle sequencing kit (Promega Corp., Madison, Wis., USA). Sequences were analysed by Blast searches of the Genbank and EMBL databases and predicted proteins analysed for motifs using the ISREC Profile Scan Server (www.isrec.isb-sib.ch).

B2: FLAG-tagged CIB (full-length CIB in pCMVTag2C) (other, not shown: small tags and cut ends)
chain: MGGSGSRLSKELLAEYQDLTFLTKQEILLAHRRFCELLPQEQRTVESSLRAQVPFEQILSLPELKANPFKERICRVFSTSPAKDSLSFEDFLDLLSVFSDTATPDIKSHYAFRIFDFDDDGTLNREDLSRLVNCLTGEGEDTRLSASEMKQLIDNILEESDIDRDGTINLSEFQHVISRSPDFASSFKIVL
notes: Expressed in HEK 293 cells overexpressing EDDM
binding result [3]: binds

B3: GAL4 AD-CIB fusion, full length CIB/KIP (other, not shown: large carriers)
chain: B2 chain
notes: Yeast two-hybrid prey clone from a human placenta cDNA library; also called CIB/KIP full-length clones
binding result [4]: binds

B5: GAL4 AD-importin α5 fusion, aa 229-538 (Impα-C) (other, not shown: large carriers)
chain: TRNAVWALSNLCRGKSPPPEFAKVSPCLNVLSWLLFVSDTDVLADACWALSYLSDGPNDKIQAVIDAGVCRRLVELLMHNDYKVVSPALRAVGNIVTGDDIQTQVILNCSALQSLLHLLSSPKESIKKEACWTISNITAGNRAQIQTVIDANIFPALISILQTAEFRTRKEAAWAITNATSGGSAEQIKYLVELGCIKPLCDLLTVMDSKIVQVALNGLENILRLGEQEAKRNGTGINPYCALIEEAYGLDKIEFLQSHENQEIYQKAFDLIEHYFGTEDEDSSIAPQVDLNQQQYIFQQCEAPMEGFQL
notes: Yeast two-hybrid prey clone; also called amino-truncated importin α5; truncated importin α5 clone
binding result [8]: binds

Other lines, results leading:

binding result [1]: no binding | binding result [2]: no binding
B1: GSTchk2-N derivative containing an R117A substitution (other)
chain: MSRESDVEAQQSHGSSACSQPHGSVTQSQGSSSQSQGISSSSTSTMPNSSQSSHSSSGTLSSLETVSTQELYSIPEDQEPEDQEPEEPTPAPWARLWALQDGFANLECVNDNYWFGADKSCEYCFDEPLLKRTDKYRTYSKKHFRIFREVGPKNSYIAYIEDHSGNGTFVNTELVGKGKRRPLNNNSEIALSLSRNKVFVFFDLTVDDQSVYPKALRDEYIMSKT
notes: also called GSTchk2-N R117A; R117A mutant; not shown: GST fusion partner at the N end and any vector linker

binding result [5]: no binding | binding result [6]: no binding | binding result [7]: no binding
B4: GST fused to amino acids 263-538 of human importin α5 (NPI-1) (other)
chain: LFVSDTDVLADACWALSYLSDGPNDKIQAVIDAGVCRRLVELLMHNDYKVVSPALRAVGNIVTGDDIQTQVILNCSALQSLLHLLSSPKESIKKEACWTISNITAGNRAQIQTVIDANIFPALISILQTAEFRTRKEAAWAITNATSGGSAEQIKYLVELGCIKPLCDLLTVMDSKIVQVALNGLENILRLGEQEAKRNGTGINPYCALIEEAYGLDKIEFLQSHENQEIYQKAFDLIEHYFGTEDEDSSIAPQVDLNQQQYIFQQCEAPMEGFQL
notes: also called GST-importin α5; GST-importin α; not shown: glutathione S-transferase (GST) fusion partner from a bacterial plasmid
